For the test, the target named is T1, His-Fibronectin type III domain (426-540) (human, UniProt P29317 426-540).
T1 construct: also called His-Fibrinctin type III domain (426-540); Fibronectin type III domain of EPHA2; not shown: histidine tag added to the amino terminus
As to the kind of experiment: SPR (Biacore T100), antibody captured on anti-human IgG(Fc), antigen as analyte, 1:1 model.

Changes are numbered by the printed parent chain.

From WO2012008397A1 (dated 2012) come the findings set out here.

The Kd is a measure of binding affinity in units of concentration. Low readings indicate higher affinity, high ones lower affinity.

T1 sequence (P29317 426-540): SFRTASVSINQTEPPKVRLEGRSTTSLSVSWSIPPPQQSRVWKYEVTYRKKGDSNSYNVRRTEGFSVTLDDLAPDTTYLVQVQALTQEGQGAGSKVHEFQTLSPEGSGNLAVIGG

B1: 348-H4-357-L4 (antibody, human IgG1, kappa, V domains shown)
VH: QVQLVQSGAEVKKPGASVKVSCKASGYTFTHYSMHWVRQAPGQGLEWMGWINTYTGEPTYADDFKGRFVFSLDTSVSTAYLQLSSLKAEDTAVYYCATYYRYERDFDYWGQGTLVTVSS
VL: DIVMTQSPLSLPVTPGEPASISCRSSQSIVHSSGITYLEWYLQKPGQSPQLLIYKVSNRFSGVPDRFSGSGSGTDFTLKISRVEAEDVGVYYCFQGSHVPYTFGQGTKVEIKR
notes: human IgG1 / kappa; also called antibody of humanized heavy chain of SH348-1 and humanized light chain of SH357-1; swapped antibody
B1 registered a Kd of 370 pM.

B2: 348-H4-357-L5 (antibody, human IgG1, kappa, V domains shown)
VH: B1 VH
VL: B1 VL with I2V, V3L, Q50K
notes: human IgG1 / kappa
For B2, the affinity, expressed as Kd, was 370 pM.

B3: 348-H5-357-L5 (antibody, human IgG1, kappa, V domains shown)
VH: B1 VH with R38K, E46K, V69A, D73E, Y95F
VL: B1 VL with I2V, V3L, Q50K
notes: human IgG1 / kappa
Molecule B3 had a Kd of 300 pM.

B4: 348-H5-357-L4 (antibody, human IgG1, kappa, V domains shown)
VH: B1 VH with R38K, E46K, V69A, D73E, Y95F
VL: B1 VL
notes: human IgG1 / kappa
Consider B4, for which the Kd stood at 320 pM.
